Data taken from patent US20220002403A1.

Molecular target: human ILT4 haplotype 5 expressed on mouse 3A9 T cells (human) (UniProt Q8N423)
Assay: cell-based or functional assay

Sequence of human ILT4 haplotype 5 expressed on mouse 3A9 T cells (human) (Q8N423 other isoform, or with tags, fused parts or gaps): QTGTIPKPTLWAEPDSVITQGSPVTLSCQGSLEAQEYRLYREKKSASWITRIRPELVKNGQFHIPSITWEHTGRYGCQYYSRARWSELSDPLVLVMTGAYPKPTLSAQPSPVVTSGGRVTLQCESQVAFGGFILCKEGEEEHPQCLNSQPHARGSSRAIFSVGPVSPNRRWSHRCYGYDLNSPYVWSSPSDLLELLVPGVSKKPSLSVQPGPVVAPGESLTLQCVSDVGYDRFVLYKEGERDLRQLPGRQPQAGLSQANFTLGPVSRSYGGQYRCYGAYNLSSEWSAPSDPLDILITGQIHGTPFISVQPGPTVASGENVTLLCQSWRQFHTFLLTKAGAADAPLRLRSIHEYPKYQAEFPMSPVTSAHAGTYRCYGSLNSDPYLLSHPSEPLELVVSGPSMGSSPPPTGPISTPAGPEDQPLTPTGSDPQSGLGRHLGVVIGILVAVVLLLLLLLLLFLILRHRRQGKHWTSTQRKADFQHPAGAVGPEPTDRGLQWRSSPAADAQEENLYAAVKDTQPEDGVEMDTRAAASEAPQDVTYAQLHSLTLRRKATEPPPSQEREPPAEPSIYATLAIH

EC50 (IL-2 Repression Assay: rescue of IL-2 release from anti-CD3 stimulated ILT4 3A9 T cell transfectants, ELISA): 0.43 µg/mL
B1: 1E1(G4) (antibody, human IgG4 S228P, lambda, V domains shown)
VH: EVQLQQWGAGLLKPSETLSLTCAVYGGSFSGYYWSWIRQPPGKGLEWIGEINHAGSTNYNPSLKSRVTISVDTSKNQFSLKLSSVTAADTAVYYCARLPTRWVTTRYFDLWGRGTLVTVSS
VL: ESVLTQPPSVSGAPGQRVTISCTGSSSNIGAGYDVHWYQQLPGTAPKLLIYGDSNRPSGVPDRFSVSKSGASASLAITGLQAEDEADYYCQSFDNSLSAYVFGGGTQLTVLG
